# Substitutions are numbered along the chain they refer to.
# B1: hCD3.5 Fab (Fab, V domains shown)
# VH: not shown
# VL: QAVVTQEPSLTVSPGGTVTLTCGSSTGAVTTSNYANWVQEKPGQAFRGLIGGTNKRAPGTPARFSGSLLGGKAALTLSGAQPEDEAEYYCALWYSNLWVFGGGTKLTVL
# notes: VH of hCD3.5; CH1 of the Fab; VL of hCD3.5; CL of the Fab; Anti-human CD3 arm of a clinical T-cell engager; cloned in pTT5 with an N-terminal osteonectin signal peptide; source: Expi293, transient, purified (Ni Sepharose excel, Superdex 200)
# B2: hCD3.2 Fab (Fab, V domains shown)
# VH: EVQLVESGGGLVQPGGSLRLSCAASGFTFNTYAMNWVRQAPGKGLEWVARIRSKYNNYATYYAASVKGRFTISRDDSKNSLYLQMNSLKTEDTAVYYCARHGNFGNSYVSWFAYWGQGTLVTVSS
# VL: B1 VL with A2T, G23R, E40Q, F46P, A80V
# notes: VH of hCD3.2; CH1 of the Fab; VL of hCD3.2; CL of the Fab; Anti-human CD3 arm of a clinical T-cell engager; cloned in pTT5 with an N-terminal osteonectin signal peptide; source: Expi293, transient, purified (Ni Sepharose excel, Superdex 200)
# B3: SP34 Fab (Fab, V domains shown)
# VH: EVQLVESGGGLVQPKGSLKLSCAASGFTFNTYAMNWVRQAPGKGLEWVARIRSKYNNYATYYADSVKDRFTISRDDSQSILYLQMNNLKTEDTAMYYCVRHGNFGNSYVSWFAYWGQGTLVTVSA
# VL: QAVVTQESALTTSPGETVTLTCRSSTGAVTTSNYANWVQEKPDHLFTGLIGGTNKRAPGVPARFSGSLIGDKAALTITGAQTEDEAIYCALWYSNLWVFGGGTKLTVL
# notes: VH of SP34; CH1 of the Fab; VL of SP34; CL of the Fab; Cyno cross-reactive anti-human CD3 clone; cloned in pTT5 with an N-terminal osteonectin signal peptide; source: Expi293, transient, purified (Ni Sepharose excel, Superdex 200)
# B4: hCD3.1 Fab (Fab, V domains shown)
# VH: EVQLVESGGGLVQPGGSLRLSCAASGFTFSDYYMTWVRQAPGKGLEWVAFIRNRARGYTSDHNPSVKGRFTISRDNAKNSLYLQMNSLRAEDTAVYYCARDRPSYYVLDYWGQGTTVTVSS
# VL: DIVMTQSPDSLAVSLGERATINCKSSQSLFNVRSRKNYLAWYQQKPGQPPKLLISWASTRESGVPDRFSGSGSGTDFTLTISSLQAEDVAVYYCKQSYDLFTFGSGTKLEIK
# notes: VH of hCD3.1; CH1 of the Fab; VL of hCD3.1; CL of the Fab; Anti-human CD3 arm of a clinical T-cell engager; cloned in pTT5 with an N-terminal osteonectin signal peptide; source: Expi293, transient, purified (Ni Sepharose excel, Superdex 200)
# B5: hCD3.4 Fab (Fab, V domains shown)
# VH: QVQLVQSGAEVKKPGASVKVSCKASGFNIKDYYMHWVRQAPGQRLEWMGWIDLENGNTIYDPKFQGRVTITRDTSASTAYMELSSLRSEDTAVYYCARDGYGRYFYDVWGQGTLVTVSS
# VL: B4 VL with F30L, V32S, S34T, R35G, S55Y, D99S, L100R, F101R, S105G, L109V
# notes: VH of hCD3.4; CH1 of the Fab; VL of hCD3.4; CL of the Fab; Anti-human CD3 arm of a clinical T-cell engager; cloned in pTT5 with an N-terminal osteonectin signal peptide; source: Expi293, transient, purified (Ni Sepharose excel, Superdex 200)
# B6: 2C11 Fab (Fab, V domains shown)
# VH: EVQLVESGGGLVQPGKSLKLSCEASGFTFSGYGMHWVRQAPGRGLESVAYITSSSINIKYADAVKGRFTVSRDNAKNLLFLQMNILKSEDTAMYYCARFDWDKNYWGQGTMVTVSS
# VL: DIQMTQSPSSLPASLGDRVTINCQASQDISNYLNWYQQKPGKAPKLLIYYTNKLADGVPSRFSGSGSGRDSSFTISSLESEDIGSYYCQQYYNYPWTFGPGTKLEIK
# notes: VH of 2C11; CH1 of the Fab; VL of 2C11; CL of the Fab; Murine surrogate anti-CD3 clone; cloned in pTT5 with an N-terminal osteonectin signal peptide; also called m2C11; source: Expi293, transient, purified (Ni Sepharose excel, Superdex 200)
# Molecular target: T1, Fc-tagged human CD3E/D heterodimer (Homo sapiens, UniProt P07766;P04234)
# T1 construct: CD3 epsilon, human; CD3 delta, human; also called hCD3E/D; source: Expi293, transiently co-expressed, purified (MabSelect Sure LX, Superdex 200)
# Assay: SPR; Fc-tagged CD3E/D variants captured on a C1 chip by amine-coupled anti-human Fc or anti-murine Fc pAb; concentration series of Fab; HBS pH 7.4, 0.05% Tween-20, 1 g/L BSA, 37 °C; 1:1 Langmuir model with mass transport
# Conditions: both partners purified
# T1 sequence (P07766 23-207, chain 1 of 2): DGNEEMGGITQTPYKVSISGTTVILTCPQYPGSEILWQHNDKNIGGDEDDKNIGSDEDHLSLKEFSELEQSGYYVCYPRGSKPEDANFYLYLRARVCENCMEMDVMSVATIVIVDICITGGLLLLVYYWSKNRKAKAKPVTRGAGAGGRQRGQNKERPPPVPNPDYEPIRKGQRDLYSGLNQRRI
# T1 sequence (P04234 22-171, chain 2 of 2): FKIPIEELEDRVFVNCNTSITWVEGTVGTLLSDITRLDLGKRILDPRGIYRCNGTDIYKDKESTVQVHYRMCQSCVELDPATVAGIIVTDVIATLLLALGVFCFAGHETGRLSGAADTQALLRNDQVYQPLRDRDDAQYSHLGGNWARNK
Kd [nM],binding result,Binder
4.1 ± 0.44,–,B1
3.1 ± 0.35,–,B2
6.6 ± 0.46,–,B3
6.3 ± 0.18,–,B4
2.7 ± 0.45,–,B5
–,no binding,B6

# Molecular target: T2, chimeric human/murine CD3E - murine CD3D Fc-tagged heterodimer (Mus musculus CD3E/D with human CD3E …, UniProt P07766;P22646;P04235, chimera)
# T2 construct: CD3 epsilon, mouse, with a 5-residue N-terminal stretch replaced by an 11-residue stretch of human CD3E; CD3 delta, mouse; also called Chimeric human/murine CD3E/D; h/mCD3E-mCD3D; source: Expi293, transiently co-expressed, purified (MabSelect Sure LX, Superdex 200)
# Assay: as above
# Conditions: both partners purified
# T2 sequence (P22646 22-189, stated change not applied, chain 1 of 2): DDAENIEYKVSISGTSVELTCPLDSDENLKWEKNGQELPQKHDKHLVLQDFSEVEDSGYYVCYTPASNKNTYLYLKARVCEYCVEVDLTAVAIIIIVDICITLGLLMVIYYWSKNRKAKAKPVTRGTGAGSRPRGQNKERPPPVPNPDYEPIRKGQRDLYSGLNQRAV
# T2 sequence (P04235 22-173, stated change not applied, chain 2 of 2): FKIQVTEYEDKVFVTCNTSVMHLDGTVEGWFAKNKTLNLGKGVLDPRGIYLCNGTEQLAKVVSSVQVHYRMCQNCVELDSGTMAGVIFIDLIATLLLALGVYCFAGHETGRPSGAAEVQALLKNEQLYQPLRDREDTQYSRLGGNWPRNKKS
row,Kd [nM],Binder
1,4.4 ± 0.27,B1
2,4.2 ± 0.22,B2
3,7.3 ± 0.18,B3
4,8.6 ± 0.53,B4
5,3.1 ± 0.23,B5
6,250 ± 16,B6

# Molecular target: T3, Fc-tagged cyno CD3E/D heterodimer (Macaca fascicularis, UniProt Q95LI5;Q95LI8)
# T3 construct: CD3 epsilon, cynomolgus monkey; CD3 delta, cynomolgus monkey; source: Expi293, transiently co-expressed, purified (MabSelect Sure LX, Superdex 200)
# Assay: as above
# Conditions: both partners purified
# T3 sequence (Q95LI5 22-198, chain 1 of 2): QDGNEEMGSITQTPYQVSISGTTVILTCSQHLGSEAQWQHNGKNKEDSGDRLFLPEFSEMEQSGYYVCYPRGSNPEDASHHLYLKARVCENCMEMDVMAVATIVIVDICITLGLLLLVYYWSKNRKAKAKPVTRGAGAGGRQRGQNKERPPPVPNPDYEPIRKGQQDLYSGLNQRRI
# T3 sequence (Q95LI8 22-171, chain 2 of 2): as the sequence (P04234 22-171, chain 2 of 2) above, with I5V, N15K, I20V, S32T, D33N, I34N, T64A, S74N, V83L, H141R counted along it
Kd [nM],binding result,Binder
5 ± 0.5,–,B1
3.8 ± 0.61,–,B2
7.5 ± 0.06,–,B3
6.5 ± 0.11,–,B4
2.7 ± 0.02,–,B5
–,no binding,B6

# Molecular target: T4, Fc-tagged murine CD3E/D heterodimer (Mus musculus, UniProt P22646;P04235)
# T4 construct: CD3 epsilon, mouse; CD3 delta, mouse; also called mCD3E/D; source: Expi293, transiently co-expressed, purified (MabSelect Sure LX, Superdex 200)
# Assay: as above
# Conditions: both partners purified
# T4 sequence (P22646 22-189, chain 1 of 2): as the sequence (P22646 22-189, stated change not applied, chain 1 of 2) above
# T4 sequence (P04235 22-173, chain 2 of 2): as the sequence (P04235 22-173, stated change not applied, chain 2 of 2) above
binding result,Kd [nM],Binder
no binding,–,B1
no binding,–,B2
no binding,–,B3
no binding,–,B4
no binding,–,B5
–,22 ± 1.4,B6

# From PMC8894342, “Humanization of a strategic CD3 epitope enables evaluation of clinical T-cell engagers in a fully immunocompetent in vivo model” (Scientific Reports, 2022)
